Measurements: US20060246095A1, “Multiepitope polypeptides for cancer immunotherapy” (HADASIT MEDICAL RESEARCH SERVICES & DEVELOPMENT LTD., priority 2003, published 2006)

Legend:
Assay type in all cases: cell-based, human
[1] = test system: T cell clone HT 2D9 (A2 restricted gp100 epitope 280-288); test: Recognition assay with proteasome inhibition (IFN-γ release ELISA), clone HT 2D9; details: transfected DC
Experimental: (§1) Dendritic cells were isolated from cytopheresis MNCs of melanoma patients with the HLA haplotypes HIA-A*0201 and HLA-DRβ1*0401. DC were generated from plastic adherent PBMCs cultured in RPMI with 10% human AB-serum, L-glutamine, penicillin-streptomycin, supplemented with GM-CSF 1000 IU/ml and IL-4 1000 IU/ml. By day 6, immature DC were harvested for electroporation.
(§2) 2.5-3×10^6 DC were re-suspended in 100 μl nucleofector solution and added to 5 μg of DNA plasmid in 2-mm electrode gap cuvettes. Transfected DC were immediately plated with CM containing GM/IL4 or let mature using TNFα 100 ng/ml and PGE2 1000 ng/ml. GFP-transfected DCs were collected 16-24 hours later for FACS analysis.
HT 2D9 which reacts with A2 restricted gp100 epitope 280-288.
(§3) T cell clones were co-incubated with DC in flat 96-well plate for 24 hours. DC were plated immediately after their transfection or pulsing in 6 separated plates, in the presence of GM CSF and IL-4. 1×10^5 T cells were added to 1×10^5 pulsed or transfected DC. In the longitudinal study, T cell clones were added to the transfected/pulsed DC at the following time points: T0=immediately, +12=after 12 hours, 24, 36, 48 and 72 hours. Supernatants were collected after overnight incubation. Interferon gamma release assay was performed to evaluate T cell stimulation using the ELISA method, results are presented in pg/ml.
(§4) Lactacystin was added to DC at concentrations of 25 μM and 50 μM, 4 hours post transfection. DC were incubated with lactacystin for 70 minutes and then washed twice.
(§5) Responding T cells were added after washing the lactacystin and co-incubated. Supernatents were collected after 20 hours.
Control DC were transfected and incubated with responder T cell clones within the same time frame, without lactacystin. […]

[2] = test system: T cell clone CK3H6 (A2 restricted gp100 epitope 209-217); test: Recognition assay for peptide presentation by DC (IFN-γ release ELISA), T cell clone CK3H6; details: CK3H6
Experimental: as §1, §2
(§6) DC were pulsed with 1 μg/ml of the relevant peptides at 1×10^6 cells/ml. Stimulants were added after 1 hour incubation without washing the peptide.
CK3H6 which recognizes the A2 restricted gp100 epitope 209-217.
as §3, §4, §5
(§7) For recognition assay of DC epitope presentation, 1×10^5 cells from different T cell clones, that were grown from PBMCs of patients, and were restricted to particular melanoma antigen peptides, were co-incubated with 1×10^5 pulsed or transfected DC, in the presence of GM-CSF and IL-4. T cell clones were added to the transfected/pulsed DC at the following time points: T=0 immediately, T=12, 24, 36, 48, 72 hours. Supernatant was collected after overnight incubation and was subjected to interferon gamma release assay, in order to evaluate the specific T cell activity towards the particular peptide presented by the DC cells.
(§8) The results shown in the following tables represent the amount of Interferon-γ (pg/ml) secreted to the culture medium as an index for T cell stimulation.

[3] = test system: DC with CM (no T cell clone); test: Recognition assay, CM in place of a T cell clone (IFN-γ background of DC); details: CM instead of T cell clone
Experimental: as §1, §2, §6, §3, §7, §8

[4] = test system: T cell clone RB-154 (gp100 154-162 peptide); test: Recognition assay for peptide presentation by DC (IFN-γ release ELISA), clone RB-154; details: T = 0 hours, RB-154
Experimental: as §1, §2, §6
as §3, with “Interferon gamma release assay was performed to evaluate T cell stimulation using the ELISA method, results are presented in pg/ml.” left out

[5] = test system: TIL 1383 (A2 restricted tyrosinase epitope 369-377); test: Recognition assay for peptide presentation by DC (IFN-γ release ELISA), TIL 1383
Experimental: as §1, §2, §6
TIL 1383 which recognizes the A2 restricted tyrosinase epitope 369-377.
as §3, §4, §5, §7, §8

[6] = test system: TIL 1940 (A2 restricted MART-1 epitope 27-35); test: Recognition assay for peptide presentation by DC (IFN-γ release ELISA), TIL 1940
Experimental: as §1, §2, §6
TIL 1940 which recognizes the A2 restricted MART-1 epitope 27-35.
as §3, §4, §5, §7, §8

[7] = transfected DC, Lactacystin 25 μM
[8] = transfected DC, Lactacystin 50 μM
[9] = transfected or peptide-pulsed DC, Donor 1, T = 12 hours
[10] = transfected or peptide-pulsed DC, Donor 1, T = 48 hours
[11] = transfected or peptide-pulsed DC, Donor 1, T = 72 hours
[12] = transfected or peptide-pulsed DC, Donor 2, T = 12 hours
[13] = transfected or peptide-pulsed DC, Donor 2, T = 24 hours
[14] = transfected or peptide-pulsed DC, Donor 2, T = 36 hours
[15] = transfected or peptide-pulsed DC, Donor 2, T = 48 hours
[16] = transfected or peptide-pulsed DC, Donor 2, T = 72 hours

B1: MEP-mel: melanoma multiepitope polypeptide, SEQ ID NO: 2 or 57; in Tables 2-9 delivered by transfecting DC with pcDNA3-MEP-Mel plasmid (protein)
chain: PGTMGSCRKSYYLEPGPVTVRKSYLIMDQVPFSVRKSYLYMDGTMSQVRKSYLAGIGILTVRKSYYLEPGPVTVALLIMDQVPFSVALLYMDGTMSQVALLLAGIGILTVSSLYLEPGPVTVAAYIMDQVPFSVSSLYMDGTMSQVAAYLAGIGILTV
**Q.** B1 was tested. Which “Interferon-γ secreted to the culture medium” value (from here on “Interferon-γ secreted”) ([1]; Lactacystin 0) did it give?
**A.** 1642 pg/mL

**Q.** And the “Interferon-γ secreted” value ([1]; Lactacystin 25 μM)?
**A.** 244 pg/mL

**Q.** What about the “Interferon-γ secreted” value ([1]; Lactacystin 50 μM) of the same molecule?
**A.** 56 pg/mL

**Q.** What about the “Interferon-γ secreted” value ([2]; transfected DC from donor 1, T = 0 hours) of the same molecule?
**A.** >2000 pg/mL

**Q.** And the “Interferon-γ secreted” value ([2]; transfected DC from donor 2, T = 0 hours)?
**A.** >2000 pg/mL

**Q.** What about the “Interferon-γ secreted” value ([2]; transfected DC, Lactacystin 0) of the same molecule?
**A.** 705 pg/mL

**Q.** And the “Interferon-γ secreted” value [2, 7]?
**A.** 73 pg/mL

**Q.** And the “Interferon-γ secreted” value [2, 8]?
**A.** 36 pg/mL

**Q.** What about the “Interferon-γ secreted” value [2, 9] of the same molecule?
**A.** >2000 pg/mL

**Q.** And the “Interferon-γ secreted” value ([2]; transfected or peptide-pulsed DC, Donor 1, T = 24 hours)?
**A.** >2000 pg/mL

**Q.** What about the “Interferon-γ secreted” value ([2]; transfected or peptide-pulsed DC, Donor 1, T = 36 hours) of the same molecule?
**A.** >2000 pg/mL

**Q.** What about the “Interferon-γ secreted” value [2, 10] of the same molecule?
**A.** >2000 pg/mL

**Q.** What about the “Interferon-γ secreted” value [2, 11] of the same molecule?
**A.** 1808 pg/mL

**Q.** What about the “Interferon-γ secreted” value [2, 12] of the same molecule?
**A.** >2000 pg/mL

**Q.** What about the “Interferon-γ secreted” value [2, 13] of the same molecule?
**A.** >2000 pg/mL

**Q.** And the “Interferon-γ secreted” value [2, 14]?
**A.** >2000 pg/mL

**Q.** What about the “Interferon-γ secreted” value [2, 15] of the same molecule?
**A.** >2000 pg/mL

**Q.** What about the “Interferon-γ secreted” value [2, 16] of the same molecule?
**A.** 1328 pg/mL

**Q.** And the “Interferon-γ secreted” value ([3]; transfected DC, Donor 1, T = 24 hours)?
**A.** 94 pg/mL

**Q.** And the “Interferon-γ secreted” value ([3]; transfected DC, Donor 1, T = 36 hours)?
**A.** 102 pg/mL

**Q.** What about the “Interferon-γ secreted” value ([3]; transfected DC, Lactacystin 0) of the same molecule?
**A.** 5 pg/mL

**Q.** What about the “Interferon-γ secreted” value [3, 7] of the same molecule?
**A.** 0 pg/mL

**Q.** What about the “Interferon-γ secreted” value [3, 8] of the same molecule?
**A.** 51 pg/mL

**Q.** And the “Interferon-γ secreted” value [3, 9]?
**A.** 120 pg/mL

**Q.** What about the “Interferon-γ secreted” value [3, 10] of the same molecule?
**A.** 33 pg/mL

**Q.** What about the “Interferon-γ secreted” value [3, 11] of the same molecule?
**A.** 18 pg/mL

**Q.** And the “Interferon-γ secreted” value [3, 12]?
**A.** 248 pg/mL

**Q.** What about the “Interferon-γ secreted” value [3, 13] of the same molecule?
**A.** 292 pg/mL

**Q.** And the “Interferon-γ secreted” value [3, 14]?
**A.** 191 pg/mL

**Q.** And the “Interferon-γ secreted” value [3, 15]?
**A.** 260 pg/mL

**Q.** What about the “Interferon-γ secreted” value [3, 16] of the same molecule?
**A.** 38 pg/mL

**Q.** What about the “Interferon-γ secreted” value ([4]; transfected DC from donor 1) of the same molecule?
**A.** 66 pg/mL

**Q.** What about the “Interferon-γ secreted” value ([4]; transfected DC from donor 2) of the same molecule?
**A.** 132 pg/mL

**Q.** And the “Interferon-γ secreted” value ([5]; transfected DC from donor 1, T = 0 hours, TIL 1383)?
**A.** 111 pg/mL

**Q.** And the “Interferon-γ secreted” value ([5]; transfected DC from donor 2, T = 0 hours, TIL 1383)?
**A.** 387 pg/mL

**Q.** And the “Interferon-γ secreted” value ([5]; transfected DC, Lactacystin 0, TIL1383)?
**A.** 229 pg/mL

**Q.** And the “Interferon-γ secreted” value ([5]; transfected DC, Lactacystin 25 μM, TIL1383)?
**A.** 25 pg/mL

**Q.** And the “Interferon-γ secreted” value ([5]; transfected DC, Lactacystin 50 μM, TIL1383)?
**A.** 0 pg/mL

**Q.** What about the “Interferon-γ secreted” value ([6]; transfected DC from donor 1, T = 0 hours, TIL 1940) of the same molecule?
**A.** >2000 pg/mL

**Q.** What about the “Interferon-γ secreted” value ([6]; transfected DC from donor 2, T = 0 hours, TIL 1940) of the same molecule?
**A.** >2000 pg/mL

**Q.** And the “Interferon-γ secreted” value ([6]; transfected DC, Lactacystin 0, TIL1941)?
**A.** 432 pg/mL

**Q.** What about the “Interferon-γ secreted” value ([6]; transfected DC, Lactacystin 25 μM, TIL1941) of the same molecule?
**A.** 62 pg/mL

**Q.** What about the “Interferon-γ secreted” value ([6]; transfected DC, Lactacystin 50 μM, TIL1941) of the same molecule?
**A.** 45 pg/mL

**Q.** What about the “Interferon-γ secreted” value ([6]; transfected or peptide-pulsed DC, Donor 1, T = 12 hours, TIL 1940) of the same molecule?
**A.** >2000 pg/mL

**Q.** And the “Interferon-γ secreted” value ([6]; transfected or peptide-pulsed DC, Donor 1, T = 24 hours, TIL 1940)?
**A.** >2000 pg/mL

**Q.** What about the “Interferon-γ secreted” value ([6]; transfected or peptide-pulsed DC, Donor 1, T = 36 hours, TIL 1940) of the same molecule?
**A.** >2000 pg/mL

**Q.** And the “Interferon-γ secreted” value ([6]; transfected or peptide-pulsed DC, Donor 1, T = 48 hours, TIL 1940)?
**A.** >2000 pg/mL

**Q.** What about the “Interferon-γ secreted” value ([6]; transfected or peptide-pulsed DC, Donor 1, T = 72 hours, TIL 1940) of the same molecule?
**A.** >2000 pg/mL

**Q.** And the “Interferon-γ secreted” value ([6]; transfected or peptide-pulsed DC, Donor 2, T = 12 hours, TIL 1940)?
**A.** >2000 pg/mL

**Q.** And the “Interferon-γ secreted” value ([6]; transfected or peptide-pulsed DC, Donor 2, T = 24 hours, TIL 1940)?
**A.** >2000 pg/mL

**Q.** And the “Interferon-γ secreted” value ([6]; transfected or peptide-pulsed DC, Donor 2, T = 36 hours, TIL 1940)?
**A.** >2000 pg/mL

**Q.** What about the “Interferon-γ secreted” value ([6]; transfected or peptide-pulsed DC, Donor 2, T = 48 hours, TIL 1940) of the same molecule?
**A.** >2000 pg/mL

**Q.** What about the “Interferon-γ secreted” value ([6]; transfected or peptide-pulsed DC, Donor 2, T = 72 hours, TIL 1940) of the same molecule?
**A.** >2000 pg/mL
